What was measured:
[1] = system: Nsp3 Ubl1 (SARS-CoV-2 (MN908947.3?)); experiment: EMSA
Nsp3 NAB (SARS-CoV-2) = experiment: EMSA
[2] = system: Nsp3 Y domain (SARS-CoV-2); experiment: EMSA
[3] = system: Nucleocapsid (N) protein (SARS-CoV-2); experiment: EMSA
Nsp3 ADRP (SARS-CoV-2) = experiment: EMSA
Nsp3 HSUD (SARS-CoV-2) = experiment: EMSA
[4] = system: Nsp3 Ubl1 (in N complex);N protein (in Ubl1 complex) (SARS-CoV-2;SARS-CoV-2); experiment: EMSA
[5] = target: SARS-CoV-2 nucleocapsid (N) protein, full length (419 amino acids) (SARS-CoV-2) (UniProt P0DTC9); experiment: SEC-RALS
[6] = target: SARS-CoV-2 Nsp3 ubiquitin-like 1 (Ubl1) domain, residues 1-111 (SARS-CoV-2); experiment: crystal structure

5' UTR (1-245)
Kd [1]: 31 µM
Kd (Nsp3 NAB (SARS-CoV-2)): 204 µM
Kd [2]: 0.7 µM
Kd [3]: 0.79 µM
Kd (Nsp3 ADRP (SARS-CoV-2)): 198 µM
Kd (Nsp3 HSUD (SARS-CoV-2)): 41 µM
Kd [4]: 0.007 µM

His6-Nsp3 Ubl1 domain (residues 1-111) (domain or fragment)
stoichiometry N (Ubl1 per N (4:4)) [5]: 1

SARS-CoV-2 Nsp3 ubiquitin-like 1 (Ubl1) domain, residues 1-111 (domain or fragment)
stoichiometry N [6]: 2
